The target in experiment [1] is human TPO receptor (MPL) expressed on Ba/F3 cells (human) (UniProt P40238). Nature of the experiment: cell-based or functional assay.
For experiment [2], the target named is T1, human TPO receptor (MPL) expressed on Ba/F3 cells (human, UniProt P40238 26-635).
T1 sequence (looked up): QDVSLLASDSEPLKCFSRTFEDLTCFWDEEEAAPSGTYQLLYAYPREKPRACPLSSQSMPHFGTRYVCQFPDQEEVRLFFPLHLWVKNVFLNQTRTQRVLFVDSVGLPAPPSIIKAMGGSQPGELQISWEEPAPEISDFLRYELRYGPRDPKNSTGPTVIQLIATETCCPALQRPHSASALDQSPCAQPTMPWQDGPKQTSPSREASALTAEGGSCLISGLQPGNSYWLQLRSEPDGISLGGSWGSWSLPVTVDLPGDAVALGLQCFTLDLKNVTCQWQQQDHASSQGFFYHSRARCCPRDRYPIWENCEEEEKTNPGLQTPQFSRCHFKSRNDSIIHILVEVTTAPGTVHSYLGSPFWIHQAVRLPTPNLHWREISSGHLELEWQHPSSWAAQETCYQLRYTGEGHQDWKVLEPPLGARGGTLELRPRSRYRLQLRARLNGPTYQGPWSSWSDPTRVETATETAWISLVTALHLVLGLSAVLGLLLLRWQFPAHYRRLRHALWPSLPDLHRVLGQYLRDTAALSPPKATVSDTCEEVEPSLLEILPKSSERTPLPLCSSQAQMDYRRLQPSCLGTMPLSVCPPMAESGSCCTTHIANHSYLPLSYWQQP
Nature of the experiment: cell-based or functional assay.

For experiment [3], the target named is T2, human Integrin Associated Protein (IAP) expressed on mouse leukemia cell line L1210 (human, UniProt Q08722 19-323).
T2 construct: whole, on cells; also called human IAP; hIAP/L1210
T2 sequence (Q08722 19-323): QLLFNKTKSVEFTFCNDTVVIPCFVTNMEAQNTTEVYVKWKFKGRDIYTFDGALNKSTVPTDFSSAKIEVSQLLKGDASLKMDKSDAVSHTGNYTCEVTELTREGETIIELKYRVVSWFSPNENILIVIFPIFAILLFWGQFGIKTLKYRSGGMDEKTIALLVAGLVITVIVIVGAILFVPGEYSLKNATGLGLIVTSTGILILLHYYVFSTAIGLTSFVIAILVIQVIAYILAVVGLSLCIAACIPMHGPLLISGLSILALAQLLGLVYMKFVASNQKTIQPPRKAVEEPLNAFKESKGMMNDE
Nature of the experiment: flow cytometry on L1210 cells expressing human IAP; COS7 culture supernatant; FITC-labeled anti-human IgG antibody.

Experiment [4] has as its target T2, human Integrin Associated Protein (IAP) …. The description is as above. The source holds these as a separate data set.
Experiment [5] shares this target. Nature of the experiment: flow cytometry, 10 µg/ml antibody on L1210 cells expressing human IAP (panel B), pCOS1/L1210 cells as control (panel A); FITC-labeled anti-mouse IgG antibody. The method, then:
Flow cytometry was performed using the purified dimer of MABL2-scFv <HL-5> and the purified sc(Fv)₂ in order to evaluate the binding to human Integrin Associated Protein (IAP) antigen. 10 μg/ml of the purified dimer of MABL2-scFv <HL-5>, the purified sc(Fv)₂, the antibody MABL-2 as a positive control or a mouse IgG (Zymed) as a negative control was added to 2×10⁵ cells of the mouse leukemia cell line L1210 expressing human IAP (hIAP/L1210) or the cell line L1210 transformed with pCOS1 (pCOS1/L1210) as a control. After incubating on ice and washing, 10 μg/mL of the mouse anti-FLAG antibody (SIGMA) was added and then the cells were incubated and washed. FITC labeled anti-mouse IgG antibody (BECTON DICKINSON) was added thereto and the cells were incubated and washed again. Then the fluorescence intensity was measured using the FACScan apparatus (BECTON DICKINSON).
A general note: Flow cytometry measures light scatter and fluorescence of single cells or particles in a stream.

Experiment [6] shares this target. Nature of the experiment: flow cytometry on L1210 cells expressing human IAP; COS7 culture supernatant; mouse anti-FLAG antibody, then FITC-labeled anti-mouse IgG antibody. The method, then: Flow cytometry was performed using the culture supernatants of COS7 cells prepared in Example 6.3 (1) to measure the binding of the MABL2-scFVs and sc(Fv)₂ to human Integrin Associated Protein (IAP) antigen. The culture supernatants to be tested or a culture supernatant of COS7 cells as a control was added to 2×10⁵ cells of the mouse leukemia cell line L1210 expressing human IAP. After incubating on ice and washing, 10 μg/mL of the mouse anti-FLAG antibody (SIGMA) was added and then the cells were incubated and washed. Then, the FITC labeled anti-mouse IgG antibody (BECTON DICKINSON) was added thereto and the cells were incubated and washed again. The fluorescence intensity was measured using the FACScan apparatus (BECTON DICKINSON).

For “human TPO (R&D Systems) (from UniProt P40225 22-353) (ligand)”, the proliferation of Ba/F3 cells expressing human TPO receptor (BaF/mpl), WST-8; ED50 in experiment [1] turned out to be 27 pM.

B1: reconstructed 12B5 single chain Fv (sc12B5), culture supernatant of COS-7 cells (scFv)
scFv: QVQLVQSGGGLVRPGGSLSLSCAVSGITLRTYGMHWVRQAPGKGLEWVAGISFDGRSEYYADSVQGRFTISRDSSKNTLYLQMNSLRAEDTAVYYCARGAHYGFDIWGQGTMVTVSSGGGGSGGGGSGGGGSDIQMTQSPSTLSASIGDRVTITCRASEGIYHWLAWYQQKPGKAPKLLIYKASSLASGAPSRFSGSGSGTDFTLTISSLQPDDFATYYCQQYSNYPLTFGGGTKLEIKDYKDDDDK
Regarding B1, the “TPO-like agonist activity: proliferation of Ba/F3 cells expressing human TPO receptor (BaF/mpl), WST-8; ED50” value in experiment [2] was 75 nM.

B2: sc12B5 dimer (scFv)
scFv: QVQLVQSGGGLVRPGGSLSLSCAVSGITLRTYGMHWVRQAPGKGLEWVAGISFDGRSEYYADSVQGRFTISRDSSKNTLYLQMNSLRAEDTAVYYCARGAHYGFDIWGQGTMVTVSSGGGGSGGGGSGGGGSDIQMTQSPSTLSASIGDRVTITCRASEGIYHWLAWYQQKPGKAPKLLIYKASSLASGAPSRFSGSGSGTDFTLTISSLQPDDFATYYCQQYSNYPLTFGGGTKLEIKDYKDDDDK
Consider B2, for which, in experiment [2], the “TPO-like agonist activity: fold against monovalent sc12B5” value was roughly 400 fold and the “TPO-like agonist activity: proliferation of Ba/F3 cells expressing human TPO receptor (BaF/mpl), WST-8; ED50” value was found to be 10.1 nM.

B3: sc12B5 monomer (scFv)
scFv: QVQLVQSGGGLVRPGGSLSLSCAVSGITLRTYGMHWVRQAPGKGLEWVAGISFDGRSEYYADSVQGRFTISRDSSKNTLYLQMNSLRAEDTAVYYCARGAHYGFDIWGQGTMVTVSSGGGGSGGGGSGGGGSDIQMTQSPSTLSASIGDRVTITCRASEGIYHWLAWYQQKPGKAPKLLIYKASSLASGAPSRFSGSGSGTDFTLTISSLQPDDFATYYCQQYSNYPLTFGGGTKLEIKDYKDDDDK
In the case of B3, the “TPO-like agonist activity: proliferation of Ba/F3 cells expressing human TPO receptor (BaF/mpl), WST-8; ED50” value in experiment [2] is 4440 nM.

B4: chimera MABL-1 antibody (antibody, V domains shown)
VH: QVQLQQSGPDLVKPGASVKMSCKASGYTFVNHVMHWVKQKPGQGLEWIGYIYPYNDGTKYNEKFKGKATLTSEKSSSAAYMELSSLASEDSAVYYCARGGYYSYDDWGQGTTLTVSS
VL: DVVMTQTPLSLPVSLGDQASISCRSSQSLLHSKGNTYLQWYLQKPGQSPKLLIYKVSNRFSGVPDRFSGSGSGTDFTLKISRVEAEDLGVYFCSQSTHVPYTSGGGTKLEIK
notes: Mouse MABL-1 V regions cloned into HEF-gamma and HEF-kappa expression vectors (human constant regions); tested as COS7 culture supernatant
Consider B4, for which the binding result in experiment [3] is listed as “binds”.

B5: chimera MABL-2 antibody (antibody, V domains shown)
VH: QVQLQQSGPELVKPGASVKMSCKASGYTFANHVIHWVKQKPGQGLEWIGYIYPYNDGTKYNEKFKDKATLTSDKSSTTAYMDLSSLASEDSAVYYCARGGYYTYDDWGQGTTLTVSS
VL: DVVMTQSPLSLPVSLGDQASISCRSSQSLVHSNGKTYLHWYLQKPGQSPKLLIYKVSNRFSGVPDRFSGSGSVTDFTLMISRVEAEDLGVYFCSQSTHVPYTFGGGTKLEIK
notes: Mouse MABL-2 V regions cloned into HEF-gamma and HEF-kappa expression vectors (human constant regions); tested as COS7 culture supernatant
As to B5, the binding result in experiment [4] is given as “binds”.

B6: mouse monoclonal antibody MABL-2 (antibody, V domains shown)
VH: QVQLQQSGPELVKPGASVKMSCKASGYTFANHVIHWVKQKPGQGLEWIGYIYPYNDGTKYNEKFKDKATLTSDKSSTTAYMDLSSLASEDSAVYYCARGGYYTYDDWGQGTTLTVSS
VL: DVVMTQSPLSLPVSLGDQASISCRSSQSLVHSNGKTYLHWYLQKPGQSPKLLIYKVSNRFSGVPDRFSGSGSVTDFTLMISRVEAEDLGVYFCSQSTHVPYTFGGGTKLEIK
notes: Whole mouse antibody from hybridoma MABL-2 (H chain amplified with the MHC-gamma2a primer, kappa L chain); also called MABL-2 (intact)
Consider B6, for which, in experiment [5], the binding result was “binds”.

B7: antibody MABL-2 sc(Fv)2 (scFv)
chain: QVQLQQSGPELVKPGASVKMSCKASGYTFANHVIHWVKQKPGQGLEWIGYIYPYNDGTKYNEKFKDKATLTSDKSSTTAYMDLSSLASEDSAVYYCARGGYYTYDDWGQGTTLTVSSGGGGSGGGGSGGGGSDVVMTQSPLSLPVSLGDQASISCRSSQSLVHSNGKTYLHWYLQKPGQSPKLLIYKVSNRFSGVPDRFSGSGSVTDFTLMISRVEAEDLGVYFCSQSTHVPYTFGGGTKLEIKGGGGSGGGGSGGGGSVDSQVQLQQSGPELVKPGASVKMSCKASGYTFANHVIHWVKQKPGQGLEWIGYIYPYNDGTKYNEKFKDKATLTSDKSSTTAYMDLSSLASEDSAVYYCARGGYYTYDDWGQGTTLTVSSGGGGSGGGGSGGGGSDVVMTQSPLSLPVSLGDQASISCRSSQSLVHSNGKTYLHWYLQKPGQSPKLLIYKVSNRFSGVPDRFSGSGSVTDFTLMISRVEAEDLGVYFCSQSTHVPYTFGGGTKLEIKDYKDDDDK
notes: Single chain polypeptide with two H chain V regions and two L chain V regions of MABL-2, FLAG at the C-terminus; eluted at the position of the monomer; also called pCHOM2(Fv)2
Take B7: the binding result in experiment [6] is given as “binds”.

B8: antibody 12B5 (IgG) (antibody, V domains shown)
VH: QVQLVQSGGGLVRPGGSLSLSCAVSGITLRTYGMHWVRQAPGKGLEWVAGISFDGRSEYYADSVQGRFTISRDSSKNTLYLQMNSLRAEDTAVYYCARGAHYGFDIWGQGTMVTVSS
VL: DIQMTQSPSTLSASIGDRVTITCRASEGIYHWLAWYQQKPGKAPKLLIYKASSLASGAPSRFSGSGSGTDFTLTISSLQPDDFATYYCQQYSNYPLTFGGGTKLEIK
With B8, the “TPO-like agonist activity: proliferation of Ba/F3 cells expressing human TPO receptor (BaF/mpl), WST-8; ED50” value in experiment [2] was 29 nM.

B9: 12B5Fab fragment (Fab, V domains shown)
VH: QVQLVQSGGGLVRPGGSLSLSCAVSGITLRTYGMHWVRQAPGKGLEWVAGISFDGRSEYYADSVQGRFTISRDSSKNTLYLQMNSLRAEDTAVYYCARGAHYGFDIWGQGTMVTVSS
VL: DIQMTQSPSTLSASIGDRVTITCRASEGIYHWLAWYQQKPGKAPKLLIYKASSLASGAPSRFSGSGSGTDFTLTISSLQPDDFATYYCQQYSNYPLTFGGGTKLEIK
With B9, in experiment [2], the “TPO-like agonist activity: proliferation of Ba/F3 cells expressing human TPO receptor (BaF/mpl), WST-8; ED50” value was 34700 nM.

These data come from US20040091475A1 (Chugai, published 2004).
